Target: E. coli DNA sliding clamp β (Escherichia coli (strain K12), UniProt P0A988, maleimide-Atto647N on a single cysteine residue (position not given))
Assay: CoSMoS single-molecule TIRF co-localization (dwell time 14.2 s on clamp-DNA); β clamp loaded by the γ clamp loader (ATP) onto end-blocked primer-template DNA; Pol IIIcore present as competitor

E. coli DNA sliding clamp β, sequence (P0A988 whole entry): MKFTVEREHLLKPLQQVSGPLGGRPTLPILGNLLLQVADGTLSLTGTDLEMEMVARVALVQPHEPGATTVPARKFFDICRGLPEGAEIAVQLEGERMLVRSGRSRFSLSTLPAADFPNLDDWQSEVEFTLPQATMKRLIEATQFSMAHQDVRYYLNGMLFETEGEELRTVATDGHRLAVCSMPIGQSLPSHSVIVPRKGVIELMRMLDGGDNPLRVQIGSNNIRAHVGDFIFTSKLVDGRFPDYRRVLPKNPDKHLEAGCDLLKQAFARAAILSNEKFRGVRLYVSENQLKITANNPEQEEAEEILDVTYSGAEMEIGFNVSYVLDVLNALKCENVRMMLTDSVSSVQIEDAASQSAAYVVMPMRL

B1: E. coli translesion DNA polymerase Pol IV, wild type (protein)
chain: MRKIIHVDMDCFFAAVEMRDNPALRDIPIAIGGSRERRGVISTANYPARKFGVRSAMPTGMALKLCPHLTLLPGRFDAYKEASNHIREIFSRYTSRIEPLSLDEAYLDVTDSVHCHGSATLIAQEIRQTIFNELQLTASAGVAPVKFLAKIASDMNKPNGQFVITPAEVPAFLQTLPLAKIPGVGKVSAAKLEAMGLRTCGDVQKCDLVMLLKRFGKFGRILWERSQGIDERDVNSERLRKSVGVERTMAEDIHHWSECEAIIERLYPELERRLAKVKPDLLIARQGVKLKFDDFQQTTQEHVWPRLNKADLIATARKTWDERRGGRGVRLVGLHVTLLDPQMERQLVLGL
modifications: Atto 565 (CoA-linked) conjugated by Sfp to the N-terminal Ybbr tag
B1: binds.
